What was measured:
[1] = molecular target: Recombinant human his-tagged IGF 1R extracellular domain protein (human) (UniProt P08069); assay: SPR, captured IgG, IGF-1R ECD-his analyte, dissociation pH 7.4
[2] = molecular target: Recombinant human his-tagged IGF 1R extracellular domain protein (human) (UniProt P08069); assay: SPR, captured IgG, IGF-1R ECD-his analyte, dissociation pH 6

Binder | Kd [1] [nM] | koff [1] [s⁻¹] | kon [1] [M⁻¹ s⁻¹] | Kd [2] [nM] | koff [2] [s⁻¹] | kon [2] [M⁻¹ s⁻¹]
VRDN-02550 (antibody, V domains shown) VH: EVQLVQSGGGLVKPGGSLRLSCAASGFTFSSFAMHWVRQAPGKGLEWISVIDTRGATYYADSVKGRFTISRDNAKNSLYLQMNSLRAEDTAVYYCARLGNFYYGMDVWGQGTTVTVSS VL: EIVLTQSPGTLSVSPGERATLSCRASQSIGSSLHWYQQKPGQAPRLLIKYASQSLSGIPDRFSGSGSGTDFTLTISRLEPEDFAVYYCHQSSRHPHTFGQGTKVEIK | 0.131 | 2.09e-05 | 160000 | 0.027 | 1e-06 | 37000
VRDN-02505 (antibody, V domains shown) VH: EVQLVQSGGGLVKPGGSLRLSCAASGFTFHSFAMHWVRQAPGKGLEWISVIDTRGATYYADSVKGRFTISRDNAKNSLYLQMNSLRAEDTAVYYCARLGNFYYGMDVWGQGTTVTVSS VL: EIVLTQSPGTLSVSPGERATLSCRASQSIGSSLHWYQQKPGQAPRLLIKYASQSLSGIPDRFSGSGSGTDFTLTISRLEPEDFAVYYCHQSSRLPHTFGQGTKVEIK | 2.6 | 0.000375 | 144000 | 0.0422 | 1e-06 | 23700
VRDN-02557 (antibody, V domains shown) VH: EVQLVQSGGGLVKPGGSLRLSCAASGFTFSSFAMHWVRQAPGKGLEWISVIDTRGATYYADSVKGRFTISRDNAKNSLYLQMNSLRAEDTAVYYCARLGNFYYGHDVWGQGTTVTVSS VL: EIVLTQSPGTLSVSPGERATLSCRASQSIGSSLHWYQQKPGQAPRLLIKHASQSLSGIPDRFSGSGSGTDFTLTISRLEPEDFAVYYCHQSSRLPHTFGQGTKVEIK | 8.16 | 0.00119 | 146000 | 0.615 | 0.00239 | 3.88e+06
VRDN-02552 (antibody, V domains shown) VH: EVQLVQSGGGLVKPGGSLRLSCAASGFTFSSFAMHWVRQAPGKGLEWISVIDTRGATYYADSVKGRFTISRDNAKNSLYLQMNSLRAEDTAVYYCARLGNFYYGMDVWGQGTTVTVSS VL: EIVLTQSPGTLSVSPGERATLSCRASQSIGSSLHWYQQKPGQAPRLLIKYASQSLSGIPDRFSGSGSGTDFTLTISRLEPEDFAVYYCHQSSRLPHHFGQGTKVEIK | 0.0311 | 1e-06 | 32200 | 0.0239 | 1e-06 | 41900
VRDN-02551 (antibody, V domains shown) VH: EVQLVQSGGGLVKPGGSLRLSCAASGFTFSSFAMHWVRQAPGKGLEWISVIDTRGATYYADSVKGRFTISRDNAKNSLYLQMNSLRAEDTAVYYCARLGNFYYGMDVWGQGTTVTVSS VL: EIVLTQSPGTLSVSPGERATLSCRASQSIGSSLHWYQQKPGQAPRLLIKYASQSLSGIPDRFSGSGSGTDFTLTISRLEPEDFAVYYCHQSSRLHHTFGQGTKVEIK | 0.771 | 6.38e-05 | 82800 | 0.0348 | 1e-06 | 28700
VRDN-02556 (antibody, V domains shown) VH: EVQLVQSGGGLVKPGGSLRLSCAASGFTFSSFAMHWVRQAPGKGLEWISVIDTRGATYYADSVKGRFTISRDNAKNSLYLQMNSLRAEDTAVYYCARLGNFYYHMDVWGQGTTVTVSS VL: EIVLTQSPGTLSVSPGERATLSCRASQSIGSSLHWYQQKPGQAPRLLIKHASQSLSGIPDRFSGSGSGTDFTLTISRLEPEDFAVYYCHQSSRLPHTFGQGTKVEIK | 10.4 | 0.0127 | 1.22e+06 | 8.47 | 0.0146 | 1.72e+06
VRDN-02559 (antibody, V domains shown) VH: EVQLVQSGGGLVKPGGSLRLSCAASGFTFSSFHMHWVRQAPGKGLEWISVIDTRGATYYADSVKGRFTISRDNAKNSLYLQMNSLRAEDTAVYYCHRLGNFYYGMDVWGQGTTVTVSS VL: EIVLTQSPGTLSVSPGERATLSCRASQSIGSSLHWYQQKPGQAPRLLIKYASQSLSGIPDRFSGSGSGTDFTLTISRLEPEDFAVYYCHQSSRLPHTFGQGTKVEIK | 0.593 | 0.000503 | 849000 | 1.74 | 0.000567 | 327000

— patent publication US20240343814A1
